# Reference: publication PMC11726454
# Target: TLR4 human recombinant protein (HY-P73586, MCE) (human) (UniProt O00206)
# Test: SPR
# UniProt O00206, sequence (O00206 24-631, one chain of several): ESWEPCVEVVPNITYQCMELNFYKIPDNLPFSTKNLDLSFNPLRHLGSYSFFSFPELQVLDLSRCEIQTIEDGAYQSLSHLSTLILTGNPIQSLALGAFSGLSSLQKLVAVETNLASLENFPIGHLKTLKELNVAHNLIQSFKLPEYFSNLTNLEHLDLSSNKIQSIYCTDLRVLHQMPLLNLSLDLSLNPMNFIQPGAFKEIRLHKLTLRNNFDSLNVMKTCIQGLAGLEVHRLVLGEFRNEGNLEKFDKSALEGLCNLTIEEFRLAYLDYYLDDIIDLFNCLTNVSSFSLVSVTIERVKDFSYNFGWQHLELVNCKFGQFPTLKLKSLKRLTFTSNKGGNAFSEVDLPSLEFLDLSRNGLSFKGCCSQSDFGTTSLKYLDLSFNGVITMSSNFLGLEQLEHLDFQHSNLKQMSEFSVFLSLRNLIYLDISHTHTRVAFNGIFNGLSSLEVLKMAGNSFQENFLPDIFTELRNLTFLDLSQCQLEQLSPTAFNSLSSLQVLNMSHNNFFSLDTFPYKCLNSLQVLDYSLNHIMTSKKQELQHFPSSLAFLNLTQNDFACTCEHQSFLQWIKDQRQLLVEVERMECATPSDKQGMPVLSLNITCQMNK
substance,measurement,value
"PBP1B without the GST tag, non-transmembrane domain (domain or fragment)",Kd,0.269 nM
